Source: article PMC2822101 (Journal of molecular biology, 2009)

B1: aggregated glucose-6-phosphate dehydrogenase (G6PDH) from Leuconostoc mesenteroides (enzyme, UniProt P11411 1-486, looked up)
chain: MVSEIKTLVTFFGGTGDLAKRKLYPSVFNLYKKGYLQKHFAIVGTARQALNDDEFKQLVRDSIKDFTDDQAQAEAFIEHFSYRAHDVTDAASYAVLKEAIEEAADKFDIDGNRIFYMSVAPRFFGTIAKYLKSEGLLADTGYNRLMIEKPFGTSYDTAAELQNDLENAFDDNQLFRIDHYLGKEMVQNIAALRFGNPIFDAAWNKDYIKNVQVTLSEVLGVEERAGYYDTAGALLDMIQNHTMQIVGWLAMEKPESFTDKDIRAAKNAAFNALKIYDEAEVNKYFVRAQYGAGDSADFKPYLEELDVPADSKNNTFIAGELQFDLPRWEGVPFYVRSGKRLAAKQTRVDIVFKAGTFNFGSEQEAQEAVLSIIIDPKGAIELKLNAKSVEDAFNTRTIDLGWTVSDEDKKNTPEPYERMIHDTMNGDGSNFADWNGVSIAWKFVDAISAVYTADKAPLETYKSGSMGPEASDKLLAANGDAWVFKG

Legend:
Experiment in all cases: retention with aggregates on a 0.1-μm filter, SDS-PAGE
[1] = molecular target: B1
[2] = molecular target: ClpB95(E279Q/E678Q) (E. coli, UniProt P63284 1-857, E279Q | E678Q)
[3] = molecular target: DnaK (UniProt P0A6Y8 1-638)

| binding result [1] | binding result [2] | binding result [3] | Binder |
| --- | --- | --- | --- |
| binds | – | – | DnaJ (natural protein, UniProt P08622 1-376, looked up) MAKQDYYEILGVSKTAEEREIRKAYKRLAMKYHPDRNQGDKEAEAKFKEIKEAYEVLTDSQKRAAYDQYGHAAFEQGGMGGGGFGGGADFSDIFGDVFGDIFGGGRGRQRAARGADLRYNMELTLEEAVRGVTKEIRIPTLEECDVCHGSGAKPGTQPQTCPTCHGSGQVQMRQGFFAVQQTCPHCQGRGTLIKDPCNKCHGHGRVERSKTLSVKIPAGVDTGDRIRLAGEGEAGEHGAPAGDLYVQVQVKQHPIFEREGNNLYCEVPINFAMAALGGEIEVPTLDGRVKLKVPGETQTGKLFRMRGKGVKSVRGGAQGDLLCRVVVETPVGLNERQKQLLQELQESFGGPTGEHNSPRSKSFFDGVKKFFDDLTR |
| – | binds | binds | B1 |
